Here are results for 3 molecules from publication PMC4262410, “Identification of Dipeptidyl-Peptidase (DPP)5 and DPP7 in Porphyromonas endodontalis, Distinct from Those in Porphyromonas gingivalis” (PLoS ONE, 2014).

Residues, ends and D or L forms follow the SMILES beside them. *: point of attachment. AMC = Cc1cc(=O)oc2cc(N*)ccc12

For one data set, the target named is T1, PeDPP7 (MER278904) (Porphyromonas endodontalis, UniProt C3JAQ3).
T1 construct: gene dpp7; 70-kDa single band; S46 family
The data set can be described thus: fluorescence of released aminomethylcoumarin, hydrolysis rate. The format is biochemical. The following applies: 20 µM substrate, 50 mM sodium phosphate pH 7.0, 5 mM EDTA, 37°C.

The subject of data set [1] is Cc1cc(=O)oc2cc(NC(=O)[C@H](Cc3ccccc3)NC(=O)CN)ccc12. The data set can be described thus: purified protein. The following applies: 50 mM sodium phosphate pH 7.0, 5 mM EDTA, 0.1 M NaCl, 37°C.
Text: (§2) fluorescence of released aminomethylcoumarin, Michaelis-Menten fit on PeDPP5 (MER236725)
Data set [2] has as its system Cc1cc(=O)oc2cc(NC(=O)[C@H](C)NC(=O)[C@@H](N)CCCCN)ccc12. Description: purified protein. The following applies: 50 mM sodium phosphate pH 7.0, 5 mM EDTA, 0.1 M NaCl, 37°C.
Text: as §2
In data set [3] the test system is Cc1cc(=O)oc2cc(NC(=O)[C@H](Cc3ccc(O)cc3)NC(=O)[C@@H](N)CO)ccc12. Description: purified protein. The following applies: 50 mM sodium phosphate pH 7.0, 5 mM EDTA, 0.1 M NaCl, 37°C.
Text: as §2
For data set [4], the system named is Cc1cc(=O)oc2cc(NC(=O)[C@H](Cc3ccccc3)NC(=O)CN)ccc12. The data set can be described thus: fluorescence of released aminomethylcoumarin, Michaelis-Menten fit. The class given is biochemical, Porphyromonas gingivalis. As to conditions: 50 mM sodium phosphate pH 7.0, 5 mM EDTA, 0.1 M NaCl, 37°C. The text has this:
(§1) fluorescence of released aminomethylcoumarin, Michaelis-Menten fit on PgDPP5

In data set [5] the test system is Cc1cc(=O)oc2cc(NC(=O)[C@H](C)NC(=O)[C@@H](N)CCCCN)ccc12. The description is as above. The format is biochemical, Porphyromonas gingivalis. The following applies: 50 mM sodium phosphate pH 7.0, 5 mM EDTA, 0.1 M NaCl, 37°C.
Text: as §1

In data set [6] the test system is Cc1cc(=O)oc2cc(NC(=O)[C@H](Cc3ccc(O)cc3)NC(=O)[C@@H](N)CO)ccc12. Described as above. The format is biochemical, Porphyromonas gingivalis. As to conditions: 50 mM sodium phosphate pH 7.0, 5 mM EDTA, 0.1 M NaCl, 37°C.
Text: as §1

T1 sequence (C3JAQ3 3-710): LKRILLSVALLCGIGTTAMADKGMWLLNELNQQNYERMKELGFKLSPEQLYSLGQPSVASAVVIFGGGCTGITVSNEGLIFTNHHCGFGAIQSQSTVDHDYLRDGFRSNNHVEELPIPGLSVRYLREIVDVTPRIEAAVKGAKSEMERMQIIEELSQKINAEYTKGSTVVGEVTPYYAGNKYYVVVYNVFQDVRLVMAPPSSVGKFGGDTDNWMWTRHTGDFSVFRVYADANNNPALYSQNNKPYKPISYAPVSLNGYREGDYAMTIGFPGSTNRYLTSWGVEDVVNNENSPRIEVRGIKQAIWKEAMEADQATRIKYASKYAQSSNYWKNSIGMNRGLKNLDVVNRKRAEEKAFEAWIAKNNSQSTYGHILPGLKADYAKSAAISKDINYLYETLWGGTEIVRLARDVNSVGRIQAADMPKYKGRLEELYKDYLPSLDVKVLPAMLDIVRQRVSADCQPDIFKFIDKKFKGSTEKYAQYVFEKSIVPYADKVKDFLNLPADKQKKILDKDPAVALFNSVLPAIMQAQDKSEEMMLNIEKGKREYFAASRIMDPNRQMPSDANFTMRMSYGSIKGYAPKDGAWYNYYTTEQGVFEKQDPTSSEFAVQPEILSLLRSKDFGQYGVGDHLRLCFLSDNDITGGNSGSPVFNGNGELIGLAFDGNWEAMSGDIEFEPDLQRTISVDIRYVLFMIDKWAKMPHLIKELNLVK

Turning to `Cc1cc(=O)oc2cc(NC(=O)[C@H](C)NC(=O)[C@@H](N)CCCCN)ccc12` [Lys-Ala-MCA] (H-Lys-Ala-{AMC}), the “fluorescence of released aminomethylcoumarin, hydrolysis rate” value on PeDPP7 (MER278904) is “slowly hydrolyzed Leu-Gln-, Lys-Ala-, Leu-Arg-, and Ala-Asn-MCA”.
For the molecule “PeDPP5 (MER236725) (Porphyromonas endodontalis ATCC 35406)”, in data set [1], the Km (usually the concentration of substrate that gives half-maximal velocity) was 993 ± 176 µM; the kcat (in general, the maximal rate divided by the concentration of active sites) was found to be 10400 ± 1640 s⁻¹; the kcat/Km (as a rule, the second-order rate constant that governs catalysis at low substrate concentration) came out at 1.05e+07 M⁻¹ s⁻¹. Besides, in data set [2], the Km is 110 ± 7 µM, the turnover number (kcat) was 21200 ± 932 s⁻¹ and the kcat/Km amounted to 1.94e+08 M⁻¹ s⁻¹. In addition, in data set [3], the Km was 257 ± 9 µM, the kcat amounted to 3470 ± 87 s⁻¹ and the kcat/Km came out at 1.35e+07 M⁻¹ s⁻¹.
In the case of “PgDPP5 (Porphyromonas gingivalis ATCC 33277)”, in data set [4], the Michaelis constant (Km) was 396 ± 51 µM, the kcat was 5640 ± 403 s⁻¹ and the kcat/Km amounted to 1.3e+07 M⁻¹ s⁻¹. Also, in data set [5], the Km turned out to be 185 ± 21 µM, the kcat worked out at 1950 ± 165 s⁻¹ and the kcat/Km worked out at 1.05e+07 M⁻¹ s⁻¹. Further, in data set [6], the Michaelis-Menten constant (Km) was found to be 296 ± 31 µM, the catalytic constant (kcat) came out at 1330 ± 100 s⁻¹ and the kcat/Km was 4.49e+06 M⁻¹ s⁻¹.
